In the assay the target is T1, GST–ELL (human, UniProt P55199 1-621).
T1 construct: ELL (ELL1), human elongation factor; also called purified recombinant GST–ELL; source: bacterial expression system, purified
The assay is described as follows: pull-down; in vitro direct interaction assay with purified GST–ELL or GST and purified HDAC3. The conditions noted are these: both partners purified.

B1: HDAC3, purified (enzyme, human, UniProt O15379 1-428, looked up)
chain: MAKTVAYFYDPDVGNFHYGAGHPMKPHRLALTHSLVLHYGLYKKMIVFKPYQASQHDMCRFHSEDYIDFLQRVSPTNMQGFTKSLNAFNVGDDCPVFPGLFEFCSRYTGASLQGATQLNNKICDIAINWAGGLHHAKKFEASGFCYVNDIVIGILELLKYHPRVLYIDIDIHHGDGVQEAFYLTDRVMTVSFHKYGNYFFPGTGDMYEVGAESGRYYCLNVPLRDGIDDQSYKHLFQPVINQVVDFYQPTCIVLQCGADSLGCDRLGCFNLSIRGHGECVEYVKSFNIPLLVLGGGGYTVRNVARCWTYETSLLVEEAISEELPYSEYFEYFAPDFTLHPDVSTRIENQNSRQYLDQIRQTIFENLKMLNHAPSVQIHDVPADLLTYDRTDEADAEERGPEENYSRPEAPNEFYDGDHDNDKESDVEI
notes: histone deacetylase 3, human; also called purified HDAC3; source: overexpressed in mammalian 293T cells, purified (high salt-based purification method)
B1: the binding result was “binds”.

Values taken from publication PMC7104407, “DBC1, p300, HDAC3, and Siah1 coordinately regulate ELL stability and function for expression of its target genes” (Proceedings of the National Academy of Sciences of the …, 2020).
